Source: publication PMC11050321, “L-Asparaginase Conjugates from the Hyperthermophilic Archaea Thermococcus sibiricus with Improved Biocatalytic Properties” (International Journal of Molecular Sciences, 2024)

Substrate: NC(=O)C[C@H](N)C(=O)O
Assay: purified protein
Assay type: biochemical, Thermococcus sibiricus
Details: native unconjugated enzyme, 25 mM borate buffer, pH 8.5 (Table 4; Figure 5 legend says pH 7.5, Methods pH 9.3), 85 °C

B1: TsA (L-asparaginase from Thermococcus sibiricus) (Thermococcus sibiricus MM 739) (protein)
chain: MKKLLIIGTGGTIASAKTEQGYKSVLKIDEILKLAKIKLENGYKIDSTNIMNIDSTLIHPEDWEIIAKEVFKALDDYDGIIITHGTDTLAYTASMLSFMIKNPNKPIVLTGSMLPITENGSDAPRNIRTAIKFAMEDVAGVFVAFMDKIMLGCRTSKVRTLGLNAFMSINYPDVAYVKGEKILYNIPKEKFQPNGSPELDTKYEPRVVVLRVTPGLGGEIIDAVLDAGYKGIVLEGYGAGGLPYRKSNLLSKIKEITPKIPVIMTTQALYDGVDMRKYEVGRKALETGIIPAKDMTKEATITKLMWALGHTKDVEKIREIMHTNYVNEIKS
notes: synthetic gene in pET-28a(+), E. coli BL21(DE3), SP-Sepharose purified (no tag mentioned); gene span 996 nt
Km: 6.1 ± 1.3 mM
Vmax: 470 µmol/min/mg
